The target in series [1] is T18‐PhaC1 (bacterial two‐hybrid fusion, pUT18C‐phaC1) (P. putida). Briefly: two-hybrid.
Series [2] deals with T1, PhaD-His6 (Pseudomonas putida KT2440), ORF:4b0e7042.
T1 sequence: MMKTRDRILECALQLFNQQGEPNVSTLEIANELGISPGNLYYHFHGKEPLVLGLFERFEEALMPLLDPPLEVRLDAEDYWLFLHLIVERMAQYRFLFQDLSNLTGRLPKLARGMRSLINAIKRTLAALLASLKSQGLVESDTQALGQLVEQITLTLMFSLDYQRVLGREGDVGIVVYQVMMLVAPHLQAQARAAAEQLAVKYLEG
The experiment in a line: EMSA.

Turning to “T18‐PhaC1 (bacterial two‐hybrid fusion, pUT18C‐phaC1) (natural protein)”, in series [1], the β‐galactosidase activity amounted to 1730 U/mg CDW.

In the case of “CGCGGATCCATGCTGTGTACCTCATGCTCATGAGTGGTGGAAAACCGCCCATGGAGGCTGGGCTTGAGCATTAAGGTAGGGAAGAAAATTAGAAACCTCACCCTAAGGTCGTCGTTGTCGCATCTATATACCGCAAGCCCCGTTGACCACAGCGCTAGCGTCGCAGGCTTCACCTCACGGACATCGACGCCATGACTGCTGTAGCAAACCCACCCAGGCTGACGTTCAAGCAAAGCGTGGCAGGAATTCCGG (double strand) [PI promoter probe (phaI upstream, 230 bp)]”, in series [2], the binding result was “binds”.

“CCGTACACTTCCGAGGATGGGCGCACCTCAGGCAGCATCTGCCGCGGGATGCCCAGGATTTCCAGCAGCTTGTCGTCCCACTGCAGGCTGTGGATGTTGAACATCAGCGTGCGCGAGGCATTGGTGTAGTCGGTGACGTGAACCTTCCCACCCGTAAGCTTCCAGATCAGCCAGGTG (double strand) [glpK coding fragment]”: in series [2], the binding result was “no binding”.
